{"source": "IntAct's records for PubMed 17666011", "key": {"[1]": {"molecular_target": "T1, anm12_arath PRMT12 (UniProt O82210)", "T1 sequence": "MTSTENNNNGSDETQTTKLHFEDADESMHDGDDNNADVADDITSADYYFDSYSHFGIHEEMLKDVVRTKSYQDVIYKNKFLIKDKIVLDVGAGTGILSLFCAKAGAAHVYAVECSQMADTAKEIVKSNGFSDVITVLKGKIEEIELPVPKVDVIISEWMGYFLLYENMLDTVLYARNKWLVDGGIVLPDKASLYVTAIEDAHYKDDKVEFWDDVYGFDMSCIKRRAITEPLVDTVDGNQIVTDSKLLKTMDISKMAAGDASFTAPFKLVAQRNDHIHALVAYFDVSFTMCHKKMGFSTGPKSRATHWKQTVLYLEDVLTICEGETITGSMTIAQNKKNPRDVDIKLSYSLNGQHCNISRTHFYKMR"}, "[2]": {"molecular_target": "T2, anm11_arath PRMT11 (UniProt Q9SU94)", "T2 sequence": "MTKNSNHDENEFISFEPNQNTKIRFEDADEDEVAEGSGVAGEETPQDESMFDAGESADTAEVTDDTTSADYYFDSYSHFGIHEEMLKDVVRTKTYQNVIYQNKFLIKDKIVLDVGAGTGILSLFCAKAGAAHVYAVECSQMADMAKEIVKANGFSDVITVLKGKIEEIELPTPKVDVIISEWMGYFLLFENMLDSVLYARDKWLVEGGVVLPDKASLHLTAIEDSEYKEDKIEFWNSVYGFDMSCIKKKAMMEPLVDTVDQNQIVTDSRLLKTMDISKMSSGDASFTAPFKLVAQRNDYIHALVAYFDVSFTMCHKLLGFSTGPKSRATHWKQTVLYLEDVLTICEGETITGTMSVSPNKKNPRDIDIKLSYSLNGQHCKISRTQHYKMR"}}, "data": [{"substance": "Histone H4 (Homo sapiens) (from UniProt P62805) R20K", "values": [{"measurement": "effect of a mutation on the interaction", "setting": "[1]", "result": "disrupting interaction"}, {"measurement": "effect of a mutation on the interaction", "setting": "[2]", "result": "disrupting interaction"}]}]}
